Consider twelve molecules from PMC11574364.

For orientation: Kd means the free concentration of one partner at which half of the binding sites on the other are occupied at equilibrium, for simple one-to-one binding.

Data set [1] has as its target T1, QKI (recombinant His-QKI) (UniProt Q96PU8).
T1 sequence: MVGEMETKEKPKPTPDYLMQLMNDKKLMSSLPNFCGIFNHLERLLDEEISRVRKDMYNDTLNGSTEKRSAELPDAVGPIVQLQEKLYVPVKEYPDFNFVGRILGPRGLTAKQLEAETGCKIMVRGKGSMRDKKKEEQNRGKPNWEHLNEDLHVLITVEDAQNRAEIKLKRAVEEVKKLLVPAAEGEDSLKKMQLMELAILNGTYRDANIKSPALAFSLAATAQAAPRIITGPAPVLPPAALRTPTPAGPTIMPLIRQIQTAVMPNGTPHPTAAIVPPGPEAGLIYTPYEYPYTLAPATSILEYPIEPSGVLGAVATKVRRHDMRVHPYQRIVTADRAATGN
Description: fluorescence polarization. Conditions: 2 mM Mg2+; FP: 20 mM HEPES pH 7.4, 150 mM NaCl, 2 mM MgCl2, 1 U/ul RiboLock, 10 mM DTT, 3 nM Cy3-RNA, 5 min, room temperature; domain array: 20 mM Tris-HCl pH 7.4, 200 mM …. A general note: Fluorescence polarisation rises when a labelled molecule tumbles more slowly, as on binding a larger partner.

The target of data set [2] is T2, HIS-QKI (RNA-binding domain array) (human, UniProt Q96PU8 1-341).
T2 sequence: T1 sequence
Kind of data set: protein microarray probed with biotinylated miRNA; Domain array: 20 mM Tris-HCl pH 7.4, 200 mM KCl, 0.2 mM EDTA, 0.05% NP40, 2 ug/ul heparin, overnight 4 C. ORF array: PBS pH 7.0 with RNase inhibitor, 100 ng RNA; high values mean tight binding.

The next data set concerns the target T3, ISY1 (human, UniProt Q9ULR0 1-285).
T3 sequence: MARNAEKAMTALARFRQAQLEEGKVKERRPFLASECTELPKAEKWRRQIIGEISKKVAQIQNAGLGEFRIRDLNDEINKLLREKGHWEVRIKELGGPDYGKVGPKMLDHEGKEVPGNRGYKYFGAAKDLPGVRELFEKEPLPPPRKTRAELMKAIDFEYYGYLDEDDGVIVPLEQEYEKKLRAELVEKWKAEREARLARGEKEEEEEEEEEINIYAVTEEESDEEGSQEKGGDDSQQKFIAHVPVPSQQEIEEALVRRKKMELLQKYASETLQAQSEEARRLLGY
Kind of data set: protein microarray; FP: 20 mM HEPES pH 7.4, 150 mM NaCl, 2 mM MgCl2, 1 U/ul RiboLock, 10 mM DTT, 3 nM Cy3-RNA, 5 min, room temperature; domain array: 20 mM Tris-HCl pH 7.4, 200 mM.

In the next data set the target is T4, ZNF597 (human, UniProt Q96LX8 1-424).
T4 sequence: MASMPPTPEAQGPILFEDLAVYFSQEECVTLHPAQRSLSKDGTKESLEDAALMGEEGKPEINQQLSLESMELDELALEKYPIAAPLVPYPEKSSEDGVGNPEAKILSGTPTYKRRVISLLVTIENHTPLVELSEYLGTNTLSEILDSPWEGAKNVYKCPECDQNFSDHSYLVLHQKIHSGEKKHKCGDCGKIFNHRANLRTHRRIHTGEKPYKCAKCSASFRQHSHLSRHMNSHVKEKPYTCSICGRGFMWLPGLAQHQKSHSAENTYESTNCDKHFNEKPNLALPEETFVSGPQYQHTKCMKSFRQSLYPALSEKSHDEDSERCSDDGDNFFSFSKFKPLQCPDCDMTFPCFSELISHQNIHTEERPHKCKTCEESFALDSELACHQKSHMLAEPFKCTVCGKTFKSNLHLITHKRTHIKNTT
Described as above.

The target of a further data set is T5, ARL10 (human, UniProt Q8N8L6 1-244).
T5 sequence: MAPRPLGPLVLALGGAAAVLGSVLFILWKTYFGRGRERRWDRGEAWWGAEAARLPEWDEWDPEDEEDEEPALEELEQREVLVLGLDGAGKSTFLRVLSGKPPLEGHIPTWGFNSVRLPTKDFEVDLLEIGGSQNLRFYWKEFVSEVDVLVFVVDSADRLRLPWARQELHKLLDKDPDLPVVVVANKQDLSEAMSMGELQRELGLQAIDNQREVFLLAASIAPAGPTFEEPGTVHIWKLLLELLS
The description is as above.

The target of a further data set is ZIC3 (human, UniProt O60481 1-467). Described as above.
The next data set has as its target ZNF490 (human, UniProt Q9ULM2 1-529). Described as above.
In the next data set the target is T6, QKI (human ORF array) (human, UniProt Q96PU8 1-341).
T6 sequence: T1 sequence
The data set is described as above.

ZNF490, sequence (Q9ULM2 whole entry): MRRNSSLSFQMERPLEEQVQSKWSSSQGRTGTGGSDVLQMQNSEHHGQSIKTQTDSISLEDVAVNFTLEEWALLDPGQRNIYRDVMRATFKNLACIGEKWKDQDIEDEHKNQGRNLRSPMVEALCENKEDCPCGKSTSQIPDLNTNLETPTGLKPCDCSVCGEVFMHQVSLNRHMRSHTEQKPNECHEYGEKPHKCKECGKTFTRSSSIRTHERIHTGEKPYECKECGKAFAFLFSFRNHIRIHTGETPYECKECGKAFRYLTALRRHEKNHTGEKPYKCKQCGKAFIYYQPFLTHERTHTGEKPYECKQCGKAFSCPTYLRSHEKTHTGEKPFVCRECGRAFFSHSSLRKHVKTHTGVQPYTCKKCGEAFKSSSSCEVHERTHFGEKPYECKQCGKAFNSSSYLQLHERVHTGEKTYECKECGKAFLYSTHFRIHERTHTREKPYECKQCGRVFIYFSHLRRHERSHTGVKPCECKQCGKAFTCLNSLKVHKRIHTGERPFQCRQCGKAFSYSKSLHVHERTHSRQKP
ZIC3, sequence (O60481 whole entry): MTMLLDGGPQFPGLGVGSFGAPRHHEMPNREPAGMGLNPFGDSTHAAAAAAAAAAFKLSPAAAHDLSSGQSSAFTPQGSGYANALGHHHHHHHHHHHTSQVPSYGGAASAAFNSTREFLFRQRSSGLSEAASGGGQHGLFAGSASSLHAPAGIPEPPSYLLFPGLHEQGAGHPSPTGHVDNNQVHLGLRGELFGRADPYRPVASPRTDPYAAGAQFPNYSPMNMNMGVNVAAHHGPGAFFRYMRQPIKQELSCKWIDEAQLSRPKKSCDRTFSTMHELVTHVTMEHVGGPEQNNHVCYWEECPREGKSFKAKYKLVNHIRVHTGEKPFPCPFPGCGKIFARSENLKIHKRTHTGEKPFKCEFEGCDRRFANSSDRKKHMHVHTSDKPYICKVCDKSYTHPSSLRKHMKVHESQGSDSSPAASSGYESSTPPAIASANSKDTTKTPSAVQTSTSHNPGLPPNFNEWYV

Consider UAGCUUAUCAGACUGAUGUUGA [miR-21-Cy3], for which the Kd in data set [1] amounted to 48.5 nM.

As for CAGUGCAAUGAUGAAAGGGCAU [miR-130b-Cy3], the Kd in data set [1] stood at 7.03 nM.

For the molecule UGAGGUAGUAGGUUGUGUGGUU [let-7b-Cy3], the Kd in data set [1] came to 8.07 nM.

On to UAGCUUAUCAGACUGAUGUUGA (ssRNA) [miR-21 biotin/Cy3], for which, in data set [2], the binding signal was 26.4 ± 0.354 fluorescence intensity.

Consider CAGUGCAAUGAUGAAAGGGCAU (ssRNA) [miR-130b biotin/Cy3], for which the binding signal in data set [2] came to 428 ± 18.2 fluorescence intensity.

As for UGAGGUAGUAGGUUGUGUGGUU (ssRNA) [let-7b biotin/Cy3], the binding signal in data set [2] turned out to be 1340 ± 56.7 fluorescence intensity.

Turning to CAGUGCAAUGAUGAAAGGGCAU (ssRNA) [miR-130b (internal labeling)], the binding result with ISY1, with ZNF597, with ARL10, with ZIC3 and with ZNF490 was “binds” throughout.

Take UGAGGUAGUAGGUUGUGUGGUU (ssRNA, 5' phosphate; amino-C6 U at position 18) [let-7b (internal labeling)]: the binding result in the data set with ISY1, with ZNF597, in the data set with QKI (human ORF array), with ARL10, in the data set with ZIC3 and in the data set with ZNF490 was “binds” in each case.

In the case of UAGCUUAUCAGACUGAUGUUGA (ssRNA) [miR-21 (internal labeling)], the binding result in the data set with ISY1, in the data set with ZNF597, in the data set with ARL10, in the data set with ZIC3 and in the data set with ZNF490 was “binds” in each case.

With UGAGGUAGUAGGUUGUAUGGUU (ssRNA) [let-7c biotin/Cy3], the binding signal in data set [2] came out at 1280 ± 235 fluorescence intensity.

For AGAGGUAGUAGGUUGCAUAGUU (ssRNA) [let-7d biotin/Cy3], the binding signal in data set [2] is 1210 ± 167 fluorescence intensity.

Regarding UGAGGUAGUAGGUUGUAUAGUU (ssRNA) [let-7a biotin/Cy3], the binding signal in data set [2] came to 336 ± 27.5 fluorescence intensity.
